For one data set, the target named is XPC4.1 DNA target. The data set is described as follows: In vitro binding assay, fluorescence anisotropy of fluorescein-labeled XPC4.1 duplex. The method, then: FIG. 7: Spectrofluorimetric titration of fluorescein-labeled XPC4.1 by XPC4. 50 nM of XPC4.1 duplex was incubated with increasing concentrations of XPC4 (from […]) in binding buffer (10 mM Tris-HCl, 150 mM NaCl, 10 mM CaCl2, 10 mM DTT, pH8) at 25° C. After 30 minutes incubation, the fluorescence anisotropy of the mixture was recorded with a Pherastar Plus (BMG Labtech) operating in fluorescence polarization end point mode with excitation and emission wavelengths set to 495 and 520 nm respectively. Normalized fluorescence anisotropy is plotted as a function of XPC4 concentration. Apparent dissociation constant were determined by fitting raw data by an hyperbolic function (Ax=(A∞*[Meganuclease])/(Kd+[Meganuclease]) with Ax, the fluorescence anisotropy value obtained at a given meganuclease concentration, A∞ the fluorescence anisotropy value obtained at saturating concentration of meganuclease and Kd the dissociation constant of the equilibrium studied).
Fluorescein labeled C1234 oligonucleotides were synthesized and HPLC-purified by Eurogentec. […] C 1234 duplex and fluorescein final concentrations were assessed by spectrophotometry using their respective extinction coefficients ε260nm=62900 M^−1 cm^−1 and ε495nm=83000 M^−1 cm^−1. […]

Another data set concerns ADCY9.1 DNA target. The data set is described as follows: In vitro single turn over cleavage assay with ADCY9.1. Format: biochemical. The method, then: FIG. 13: In vitro cleavage of unmethylated or methylated ADCY9.1 by ADCY9. A constant amount of ADCY9.1 duplex (50 nM) was incubated with an excess of ADCY9 (1.5 μM, final concentration) in the reaction buffer (10 mM Tris-HCl, 150 mM NaCl, pH8) at 37° C. Cleavage reaction was triggered by the addition of MgCl2 and then stopped after different time lengths by the addition of the stop buffer. This was followed by one hour of incubation at 37° C. to digest ADCY9 and release free DNA molecules. Cleaved and uncleaved DNA products were separated by PAGE using a TGX Any kD precast gel (Bio-Rad), stained with SYBR Green and then quantified using Quantity One software (Bio-Rad). Disappearance of substrate (uncleaved DNA) is plotted as a function of time.
To investigate the influence of C1234 methylation on the nuclease activity of I-Cre I, in vitro single turn over cleavage assays were performed with either unmethylated or methylated C1234 duplexes (unmethylated C1234 composed of SEQ ID NO: 31+SEQ ID NO: 32, C1234_Me full composed of SEQ ID NO: 35+SEQ ID NO: 38, C1234_Me-6a/-5b composed of SEQ ID NO: 33+SEQ ID NO: 36, C1234_Me-3a/-2b composed of SEQ ID NO: 34+SEQ ID NO: 37, C1234_Me-3a composed of SEQ ID NO: 34+SEQ ID NO: 32, C1234_Me-2b composed of SEQ ID NO: 31+SEQ ID NO: 37, respectively). A constant amount of C1234 duplex (50 nM) was incubated with an excess of I-Cre I (1.5 μM, final concentration) in the reaction buffer (10 mM Tris-HCl, 150 mM NaCl, pH8) at 37° C. Cleavage reaction was triggered by the addition of MgCl2 and then stopped after different time lengths by the addition of the stop buffer (45% glycerol, 95 mM EDTA, 1.5% (w/v) SDS, 1.5 mg/mL proteinase K and 0.048% (w/v) bromophenol blue, final concentrations). This was followed by one hour incubation at 37° C. to digest I-Cre I and release free DNA molecules. Cleaved and uncleaved DNA products were separated by PAGE using a TGX Any kD precast gel (Bio-Rad), stained with SYBR Green and then quantified using Quantity One software (Bio-Rad). […]

Bounds are passed on as bounds.

One may read the Kd as the free concentration of one partner at which half of the binding sites on the other are occupied at equilibrium, for simple one-to-one binding. Lower therefore signals higher affinity. By kcat is commonly meant the number of substrate molecules converted per active site and unit of time at saturation.

B1: XPC4: engineered meganuclease (SEQ ID NO: 2) designed to cleave xeroderma pigmentosum group C gene (XPC) (protein)
chain: MANTKYNEEFLLYLAGFVDGDGSIIAQIKPNQSHKFKHALQLTFKVTQKTQRRWFLDKLVDEIGVGYVQDSGSVSNYILSEIKPLHNFLTQLQPFLELKQKQANLALKIIEQLPSAKESPDKFLEVCTWVDQVAALNDSKTRKTTSETVRAVLDSLSEKKKSSPAAGGSDKYNQALSKYNQALSKYNQALSGGGGSNKKFLLYLAGFVDSDGSIIAQIKPNQSHKFKHQLSLAFQVTQKTQRRWFLDKLVDRIGVGYVRDRGSVSDYILSKIKPLHNFLTQLQPFLKLKQKQANLVLKIIEQLPSAKESPDKFLEVCTWVDQVAALNDSKTRKTTSETVRAVLDSLSEKKKSSP
On to B1, for which the results for the Kd on XPC4.1 DNA target (XPC4.1_Me −11a/−10b & +10a/+11b (fully methylated)) and on XPC4.1 DNA target (unmethylated XPC4.1) were 127 ± 22 nM and 108 ± 21 nM, respectively.

B2: ADCY9: engineered meganuclease (SEQ ID NO: 3) designed to cleave adenylate cyclase 9 gene (protein)
chain: MANTKYNEEFLLYLAGFVDGDGSIIAQIKPNQSYKFKHQLSLTFRVTQKTQRRWFLDKLVDEIGVGYVRDSGSVSNYDLSEIKPLHNFLTQLQPFLELKQKQANLVLKIIEQLPSAKESPDKFLEVCTWVDQVAALNDSKTRKTTSETVRAVLDSLSEKKKSSPAAGGSDKYNQALSKYNQALSKYNQALSGGGGSNKKFLLYLAGFVDSDGSIIAQIKPDQSYKFKHQLGLTFQVTQKTQRRWFLDKLVDRIGVGYVRDRGSVSDYILSEIKPLHNFLTQLQPFLKLKQKQANLVLKIIEQLPSAKESPDKFLEVCTWVDQVAALNDSKTRKTTSETVRAVLDSLSEKKKSSP
For B2, the kcat with ADCY9.1 DNA target (ADCY9.1_Me −3a/−2b (fully methylated)) is less than 1.7e-06 s⁻¹; with ADCY9.1 DNA target (unmethylated ADCY9.1) it was 0.00095 ± 1.7e-05 s⁻¹. Moreover, in the data set on ADCY9.1 DNA target (fully methylated ADCY9.1, even after 5 hours), the “substrate disappearance” value is recorded as “no substrate disappearance was observed”.
